Experimental data published in patent US5804604, “Tat-derived transport polypeptides and fusion proteins” (Biogen, Inc., dated 1998).
Numbering of substitutions follows the chain as printed.

B1: JB106 (other)
chain: MYGRKKRRQRRRPPDTGNPCHTTKLLHRDSVDSAPILTAFNSSHKGRINCNSNTTPIVHLKGDANTLKCLRYRFKKHCTLYTAVSSTWHWTGHNVKHKSAIVTLTYDSEWQRDQFLSQVKIPKTITVSTGFMSI
B2: TxHE2CCSS (tat37-72 chemically cross-linked to E2.123CCSS) (other)
chain: MVPDTGNPCHTTKLLHRDSVDSAPILTAFNSSHKGRINCNSNTTPIVHLKGDANTLKSLRYRFKKHSTLYTAVSSTWHWTGHNVKHKSAIVTLTYDSEWQRDQFLSQVKIPKTITVSTGFMSI
peptide: CFITKALGISYGRKKRRQRRRPPQGSQTHQVSLSKQ
modifications: cysteine cross-linked through bismaleimidohexane (BMH) to tat37-72; 1 transport molecule per E2 repressor homodimer; cysteine coupled to bismaleimidohexane (BMH)
B3: HE2.123 (unconjugated E2.123 repressor protein) (other)
chain: B2 chain with S58C, S67C

Molecular target: full-length HPV-16 E2 protein (E2 transactivator expressed from plasmid pAHE2) (human papillomavirus strain 16 (HPV-16), UniProt P03120)
Test: cell-based or functional assay

Row | Binder | % repression (E2 repression assay, COS7 cells, without chloroquine)
1 | B1 | 94.3 % repression
2 | B2 | 69.4 % repression
3 | B3 | 0.3 % repression
